In article PMC12364711:

Target: superGmFLS2, C-terminal mEGFP (soybean (Glycine max))

NbBAK1 (BRASSINOSTEROID … 1-ASSOCIATED KINASE 1 of Nicotiana benthamiana), C-terminal 4xHA (receptor)
total flg22^Rso-induced ROS production in N. benthamiana fls2 leaves, against wild-type GmFLS2b: > 3 fold
